From the supplement of paper PMC12042874
± gives the uncertainty stated by the source.

Assay: amyloid nucleation score (Sup35N fusion, yeast selection) (log enrichment); library NNK3; higher = more nucleation; inactive = no reads after selection
In short: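 After 24 hours of induction with 100 μM copper sulfate, psi-negative yeast expressing peptides of 20 random codons fused to Sup35N were grown for 7 days at 30°C on medium lacking adenine and uracil. Input and output plasmid inserts were sequenced with Illumina, and sequences with under 100 input reads were discarded. Scores for nucleation are the DiMSum log enrichment of output over input reads, centred on the mode score of non-aggregating sequences.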

Substance	amyloid nucleation score
NCKMWRYKVESNCPGMICRC	inactive
LGRKNGGAVNVRRPHFDWDG	inactive
LIRPDCEDTRFCIRSWDCQG	inactive
NCMELLWCCSCSSVICVMHH	2.96 ± 0.07
TARHKHGLSLCDGVADLRGC	inactive
NTHAVLICKCKDCEWNMIGG	0.246 ± 0.66
LPLADLKGMASASFKDGKVF	inactive
QWTQFIELLCYCYG	1.87 ± 0.11
NVLVKYVPAALFRSNSLQET	inactive
YLGLRKIWIYL	inactive
CDFTKSNDTCMDTASMSLLV	inactive
IYLLYNPCFRMRYLFCMLRG	inactive
TWGIG	inactive
LRQVNQWVDVKASDPNGTAL	inactive
WQLRQGDLGSHVRRFLQLYR	inactive
GASKHT	0.319 ± 0.33
LMPWTMSIWGL	inactive
SVYNSYWKVQYRVVMS	0.506 ± 0.21
EIWSDKCSTRSMLHPAYIMY	inactive
TYVARIVN	inactive
LRWCGSVFLFGGCRGTVVSW	inactive
AKWVLDFVKDRLPFRFCMLV	inactive

Substance	amyloid nucleation score
YVSTHLSVYTKSFRDMIAPG	inactive
DRRLPIKPHVFVYSCNSICM	0.921 ± 0.17
RCNPGLVCLGCTFVSRNAYS	1.67 ± 0.081
YSTRVVRSTPWSKCSSPDME	inactive
WYFGCSALYQL	1.49 ± 0.099
FEIRLFISGQDQAHGCCPWY	inactive
SMDTSTPTIV	inactive
SFSLKPTDYIFIIVRSRRNP	inactive
KEAVFIFSTHSGFLALFCMM	inactive
MVGGVHCLSSVLRRWAAGRR	-0.676 ± 1.7
MIRLNNRARRNLLRLRVDRQ	inactive
FGVTVSYKWWRWSPLSYCAM	inactive
NDTFVY	inactive
LGLRHDICITDRINSGLRGS	inactive
HFSFLL	1.37 ± 0.084
FEETIINFCRYLFMMFTGVV	1.87 ± 0.1
LSWIWNLANSVKDNMGGMRM	inactive
IGRPGVRYNLKCRGRIRG	inactive
WYTNPRDIRYFLVVYKKQN	inactive
WTIDTD	inactive
SRVWMITRLFGTMA	inactive
VDLGRWFSSGFVWLGYKDIF	inactive

Substance	amyloid nucleation score
IDPQS	inactive
CSYYFQLNMVSKECPRS	0.562 ± 0.14
LIRYPGRSEDTVRFWRERMG	inactive
CTSQVDT	inactive
IFVLLVRANV	-0.449 ± 0.7
IHLRDMSLS	0.591 ± 0.16
GYLFGVRVGCVYELAFDGCR	inactive
IFVFLHLHLIWFYSSSWLMD	inactive
YRLISCLVFISGRFSN	inactive
EMTMTWCMVVRLVWVTNGIL	inactive
TEYRYVLSISCH	inactive
VFLSIMSSFEWALYLL	inactive
VDSILAMGRGAYVID	inactive
CLISLDHIFLPSWNTGICIL	inactive
YRSLITLQAIRCGIWFCGLW	inactive
PEMSSSGAKAKYPTSMTS	inactive
LYVFYCVTHLHSIGPGQCLR	inactive
GYTNKLKWGHRITINAFVYR	-0.267 ± 0.68
MGYLMRALGHCSY	inactive
GFSDLCQHYFQYLVK	inactive
SSSYFIALWYFRTTRLSGGL	inactive
